This is an account of results in patent publication US11505583B2, “Proteins for the treatment of epithelial barrier function disorders” (Second Genome, Inc., priority 2018, dated 2022).

Series [1] is described as follows: Stability in storage buffer formulations by analytical SEC (Example 11). It counts as physicochemical. As to the method: Although SG-11 protein is very stable at high temperature, forming aggregations at 37° C. in a week could be the problem at the downstream processing stage. Deamidation of asparagine residues found by LC/MS/MS are also a risk factor. In order to improve the manufacturability of a protein comprising SEQ ID NO:3 or variants thereof, the protein depicted as SG-11 (SEQ ID NO:7) was mutated to contain the following 4 substitutions: N53S, N83S, C147V and C151S. This variant with 4 substitutions is designated as SG-11V5, provided herein as SEQ ID NO:19. The stability of purified SG-11 and SG-11V5 was tested in different storage buffer formulations. SG-11V5 (SEQ ID NO:19) has about 98.3% sequence identity to SEQ ID NO:7.
Specifically, purified SG-11 (SEQ ID NO:7) was incubated in pH 5.2 (FIGS. 15A, 15B and 15C), pH 7.0 (FIGS. 15D, 15E and 15F) and pH 8.0 (FIGS. 15G, 15H and 15I). Effect of additives was also tested at the 3 different pH conditions: 150 mM NaCl (FIGS. 15A, 15D and 15G); 150 mM NaCl and 100 mM arginine (FIGS. 15B, 15E and 15H); and 150 mM NaCl and 0.5 M sorbitol (FIGS. 15C, 15F and 15I). Stability was analyzed by analytical SEC. Arrow heads indicate the retention time of the monomeric form.
SG-11V5 (SEQ ID NO:19) was incubated in pH 5.2 (FIGS. 16A, 16B and 16C), pH 7.0 (FIGS. 16D, 16E and 16F) and pH 8.0 (FIGS. 16G, 16H and 16I). Effect of additives was also tested at the 3 different pH conditions: 150 mM NaCl (FIGS. 16A, 16D and 16G); 150 mM NaCl and 100 mM Arg (FIGS. 16B, 16E and 16H); and 150 mM NaCl and 0.5 M sorbitol (FIGS. 16C, 16F and 16I). Stability was analyzed by analytical SEC. Arrow heads indicate the retention time of the monomeric form.

Series [2] deals with C57BL/6 mice given 2.5% DSS in drinking water. In words: Therapeutic DSS model of inflammatory bowel disease, treatment after 7 days DSS (Example 5, Example 13B). The format is in vivo, mouse. Particulars: Example 13B; for LBP in serum (ELISA): 50 nmole/kg i.p. b.i.d. for 4 days after 7 days DSS, FIG. 19B; for Colon length / Colon weight to length ratio: 50 nmole/kg, vs DSS+vehicle; for Colon length: FIG. 22B; for Colon weight to length ratio: p<0.01, FIG. 23B; for Body weight changes: 50 nmoles/kg, day 11, p<0.05, FIG. 20B. How it is done:
In this example, experiments were performed to study the effects of SG-11 in the DSS mouse model when the SG-11 protein is administered to the mice after DSS treatment for 7 days. This differs from the treatment regimen of Example 4 above in which mice were administered SG-11 protein shortly before treatment with DSS.
Eight-week-old male C57BL/6 mice were housed 5 animals per cage and given food and water ad libitum for seven days. Following a 7-day acclimation period, the mice were provided with drinking water containing 2.5% DSS for 7 days. Fresh 2.5% DSS water was prepared every 2 days during the 7 day DSS administration. For this therapeutic DSS study, SG-11 used to treat the animals was fused at its N-terminus to a FLAG Tag (DYKDDDDK; SEQ ID NO:32).
On day 7 normal drinking water was restored and i.p. treatments of 50 nmole/kg of SG-11 (1.3 mg/kg) or Gly2-GLP2 (0.2 mg/kg) were initiated. Treatments were administered twice a day (b.i.d.), with a morning and evening dose (every 8 and 16 hours) for six days.
Body weight was measured daily during the morning treatment. The colon tissue was then harvested and length was measured in centimeters and the tissue was weighed. Fecal material was flushed from the colon and residual PBS removed by gently running the colon tissue through a pair of forceps. The colon tissue was then weighed and colon weight to length ratio in mg/mm was determined. Following weight measurements proximal and distal colon tissue was banked for RNA and protein analysis and the remaining tissues was fixed in 10% neutral buffered formalin for histopathology. Statistical analysis was performed by a one-way ANOVA compared to DSS+vehicle for serum 4KDa-FITC translocation, serum LBP concentrations, colon length, and colon weight to length ratio, while a two-way ANOVA was performed for analysis of body weight. In all analysis, a Fisher's LSD test for multiple comparisons was used. Graphs represent data pooled from two experiments, and are plotted as mean±SEM.
Histopathology analysis was performed on proximal and distal colon tissues from the therapeutic DSS model described above. Proximal (FIG. 13A) and distal (FIG. 13B) colon scores (range 0-4) are presented and as well as the total score for the colon which represents the sum of proximal and distal colon scores (Range 0-8) (FIG. 13C). LMA=Loss of mucosal architecture, Edema=Edema, INF=Inflammation, TMI=Transmural inflammation, MH=Mucosal hyperplasia, DYS=Dysplasia. Graphs represent data pooled from two independent experiments, and are plotted as mean±SEM. Statistical analysis was performed by a one-way ANOVA compared to DSS+vehicle followed by a Fisher's LSD test for multiple comparisons.
In the second experiment (Example 13B), mice were provided with drinking water containing 2.5% DSS for 7 days. On day 7 normal drinking water was restored and i.p. treatments of 50 nmole/kg of SG-11 (SEQ ID NO:7) (1.3 mg/kg), SG-11V5 (SEQ ID NO:19) (1.3 mg/kg), or Gly2-GLP2 (0.2 mg/kg) were initiated. Treatments were administered twice a day (b.i.d.), with a morning and evening dose (every 8 and 16 hours) for 4 days. For both the prophylactic and therapeutic models fresh 2.5% DSS water was prepared every 2 days during the DSS administration.
At the end of each DSS model study, mice were fasted for 4 hours and then orally gavaged with 600 mg/kg 4KDa dextran labeled with fluorescein isothiocyanate (FITC) [4KDa-FITC]. One hour after the 4KDa-FITC gavage mice were euthanized, blood was collected and FITC signal was measured in serum. […] Data in both graphs are plotted as mean±SEM and each figure represent data from an individual experiment (n=10 per group).
Upon completion of the DSS models above, LBP levels were measured as an inflammation centric readout of barrier function following the protocol detailed in Example 5. Upon completion of both DSS models (Examples 13A and 13B) blood was collected and serum was isolated. […]
In general terms: An ELISA detects its analyte on a solid surface through an enzyme-linked reagent.

B1: SG-11 (SEQ ID NO:7): Recombinant SG-11 with N-terminal methionine, 233 amino acids, no N-terminal tag (protein)
chain: MLEGEESVVYVGKKGVIASLDVETLDQSYYDETELKSYVDAEVEDYTAEHGKNAVKVESLKVEDGVAKLKMKYKTPEDYTAFNGIELYQGKVVASLAAGYVYDGEFARVEEGKVVGAATKQDIYSEDDLKVAIIRANTDVKVDGEICYVSCQNVKLTGKDSVSIRDGYYLETGSVTASVDVTGQESVGTEQLSGTEQMEMTGEPVNADDTEQTEAAAGDGSFETDVYTFIVYK
For the molecule B1, the “Aggregate formation (analytical SEC)” value in series [1] (100 mM arginine at pH 7.0 (150 mM NaCl), FIG. 15) is given as “greatly suppressed”. Moreover, the “Behaviour at pH 5.2” value in series [1] was “precipitated”. In series [2], the “LBP in serum (ELISA)” value is on record as “no reduction in LBP”, the Colon length entry was “significant increase in the colon length”, the “Colon weight to length ratio” value is on record as “significantly improved colon weight to length ratios” and the Body weight changes result was “statistically improved body weight changes”.

B2: SG-11V5: SG-11 variant SEQ ID NO:19 comprising N53S, N83S, C147V, C151S with respect to SEQ ID NO:7 (protein)
chain: MLEGEESVVYVGKKGVIASLDVETLDQSYYDETELKSYVDAEVEDYTAEHGKSAVKVESLKVEDGVAKLKMKYKTPEDYTAFSGIELYQGKVVASLAAGYVYDGEFARVEEGKVVGAATKQDIYSEDDLKVAIIRANTDVKVDGEIVYVSSQNVKLTGKDSVSIRDGYYLETGSVTASVDVTGQESVGTEQLSGTEQMEMTGEPVNADDTEQTEAAAGDGSFETDVYTFIVYK
For the molecule B2, in series [1] (all conditions tested: pH 5.2, 7.0, 8.0, 150 mM NaCl ± 100 mM arginine or 0.5 M sorbitol, FIG. 16), the “Aggregation (analytical SEC)” value is reported as “did not show large amount of aggregation”. In addition, the “Behaviour at pH 5.2” value in series [1] is given as “precipitated”. In addition, the “Stability compared with SG-11” value in series [1] (pH 7.0 and pH 8.0) is “improved stability”. The “Small aggregation peak at 1.34 mL (analytical SEC)” value in series [1] (with 100 mM arginine or 0.5 M sorbitol) is “suppressed”. In series [2], the “LBP in serum (ELISA)” value is recorded as “no reduction in LBP”, the Colon length entry was “significant increase in the colon length”, the “Colon weight to length ratio” value is listed as “significantly improved colon weight to length ratios” and the Body weight changes entry is given as “statistically improved body weight changes”.
